*1 amine or outer side, *2 acyl side, *3 side chain or, on linkers, in order; H or OH if unused. Where no end group is shown, it is not given here. Side-chain parts run from the residue outwards. [ ]: non-standard residue; d: D form. The star is where a group is joined. γGlu = O=C(O)[C@H](CCC(=O)[*:2])N[*:1]; Stearoyl = CCCCCCCCCCCCCCCCCC(=O)*; Palmitoyl = CCCCCCCCCCCCCCCC(=O)*; Aib = CC(C)(N)C(=O)O
T1: human GIP receptor (human, UniProt P48546 22-466)
T1 sequence (looked up): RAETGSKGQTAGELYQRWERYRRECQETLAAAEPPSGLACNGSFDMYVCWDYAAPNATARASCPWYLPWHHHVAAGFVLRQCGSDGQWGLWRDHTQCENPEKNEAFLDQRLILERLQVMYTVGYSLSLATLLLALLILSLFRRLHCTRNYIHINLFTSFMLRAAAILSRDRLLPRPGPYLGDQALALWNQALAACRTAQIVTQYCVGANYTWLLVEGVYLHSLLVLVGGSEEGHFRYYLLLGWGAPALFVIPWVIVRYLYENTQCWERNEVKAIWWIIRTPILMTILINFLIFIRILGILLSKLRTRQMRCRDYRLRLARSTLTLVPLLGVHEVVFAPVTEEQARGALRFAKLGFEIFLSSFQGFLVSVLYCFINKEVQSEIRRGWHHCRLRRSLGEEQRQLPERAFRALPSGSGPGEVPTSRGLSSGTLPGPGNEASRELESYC

B1: exendin-4 peptide analogue SEQ ID NO: 32 (peptide)
peptide: Y[Aib]HGTFTSDLSIQK([γGlu-Stearoyl])EKRAAFEFIEWLKNTGPSSGAPPPS-NH2
modifications: N-terminus assumed
SMILES: CCCCCCCCCCCCCCCCCC(=O)N[C@@H](CCC(=O)NCCCC[C@H](NC(=O)[C@H](CCC(N)=O)NC(=O)[C@@H](NC(=O)[C@H](CO)NC(=O)[C@H](CC(C)C)NC(=O)[C@H](CC(=O)O)NC(=O)[C@H](CO)NC(=O)[C@@H](NC(=O)[C@H](Cc1ccccc1)NC(=O)[C@@H](NC(=O)CNC(=O)[C@H](Cc1c[nH]cn1)NC(=O)C(C)(C)NC(=O)[C@@H](N)Cc1ccc(O)cc1)[C@@H](C)O)[C@@H](C)O)[C@@H](C)CC)C(=O)N[C@@H](CCC(=O)O)C(=O)N[C@@H](CCCCN)C(=O)N[C@@H](CCCNC(=N)N)C(=O)N[C@@H](C)C(=O)N[C@@H](C)C(=O)N[C@@H](Cc1ccccc1)C(=O)N[C@@H](CCC(=O)O)C(=O)N[C@@H](Cc1ccccc1)C(=O)N[C@H](C(=O)N[C@@H](CCC(=O)O)C(=O)N[C@@H](Cc1c[nH]c2ccccc12)C(=O)N[C@@H](CC(C)C)C(=O)N[C@@H](CCCCN)C(=O)N[C@@H](CC(N)=O)C(=O)N[C@H](C(=O)NCC(=O)N1CCC[C@H]1C(=O)N[C@@H](CO)C(=O)N[C@@H](CO)C(=O)NCC(=O)N[C@@H](C)C(=O)N1CCC[C@H]1C(=O)N1CCC[C@H]1C(=O)N1CCC[C@H]1C(=O)N[C@@H](CO)C(N)=O)[C@@H](C)O)[C@@H](C)CC)C(=O)O
B2: exendin-4 peptide analogue SEQ ID NO: 36 (peptide)
peptide: Y[Aib]QGTFTSDLSIQK([γGlu-Palmitoyl])EKRAAHEFIEWLKNTGPSSGAPPPS-NH2
modifications: N-terminus assumed
SMILES: CCCCCCCCCCCCCCCC(=O)N[C@@H](CCC(=O)NCCCC[C@H](NC(=O)[C@H](CCC(N)=O)NC(=O)[C@@H](NC(=O)[C@H](CO)NC(=O)[C@H](CC(C)C)NC(=O)[C@H](CC(=O)O)NC(=O)[C@H](CO)NC(=O)[C@@H](NC(=O)[C@H](Cc1ccccc1)NC(=O)[C@@H](NC(=O)CNC(=O)[C@H](CCC(N)=O)NC(=O)C(C)(C)NC(=O)[C@@H](N)Cc1ccc(O)cc1)[C@@H](C)O)[C@@H](C)O)[C@@H](C)CC)C(=O)N[C@@H](CCC(=O)O)C(=O)N[C@@H](CCCCN)C(=O)N[C@@H](CCCNC(=N)N)C(=O)N[C@@H](C)C(=O)N[C@@H](C)C(=O)N[C@@H](Cc1c[nH]cn1)C(=O)N[C@@H](CCC(=O)O)C(=O)N[C@@H](Cc1ccccc1)C(=O)N[C@H](C(=O)N[C@@H](CCC(=O)O)C(=O)N[C@@H](Cc1c[nH]c2ccccc12)C(=O)N[C@@H](CC(C)C)C(=O)N[C@@H](CCCCN)C(=O)N[C@@H](CC(N)=O)C(=O)N[C@H](C(=O)NCC(=O)N1CCC[C@H]1C(=O)N[C@@H](CO)C(=O)N[C@@H](CO)C(=O)NCC(=O)N[C@@H](C)C(=O)N1CCC[C@H]1C(=O)N1CCC[C@H]1C(=O)N1CCC[C@H]1C(=O)N[C@@H](CO)C(N)=O)[C@@H](C)O)[C@@H](C)CC)C(=O)O
B3: exendin-4 peptide analogue SEQ ID NO: 31 (peptide)
peptide: Y[Aib]QGTFTSDLSIQK([γGlu-Stearoyl])DEQRAKEFIEWLKAGGPSSGAPPPS-NH2
modifications: N-terminus assumed
SMILES: CCCCCCCCCCCCCCCCCC(=O)N[C@@H](CCC(=O)NCCCC[C@H](NC(=O)[C@H](CCC(N)=O)NC(=O)[C@@H](NC(=O)[C@H](CO)NC(=O)[C@H](CC(C)C)NC(=O)[C@H](CC(=O)O)NC(=O)[C@H](CO)NC(=O)[C@@H](NC(=O)[C@H](Cc1ccccc1)NC(=O)[C@@H](NC(=O)CNC(=O)[C@H](CCC(N)=O)NC(=O)C(C)(C)NC(=O)[C@@H](N)Cc1ccc(O)cc1)[C@@H](C)O)[C@@H](C)O)[C@@H](C)CC)C(=O)N[C@@H](CC(=O)O)C(=O)N[C@@H](CCC(=O)O)C(=O)N[C@@H](CCC(N)=O)C(=O)N[C@@H](CCCNC(=N)N)C(=O)N[C@@H](C)C(=O)N[C@@H](CCCCN)C(=O)N[C@@H](CCC(=O)O)C(=O)N[C@@H](Cc1ccccc1)C(=O)N[C@H](C(=O)N[C@@H](CCC(=O)O)C(=O)N[C@@H](Cc1c[nH]c2ccccc12)C(=O)N[C@@H](CC(C)C)C(=O)N[C@@H](CCCCN)C(=O)N[C@@H](C)C(=O)NCC(=O)NCC(=O)N1CCC[C@H]1C(=O)N[C@@H](CO)C(=O)N[C@@H](CO)C(=O)NCC(=O)N[C@@H](C)C(=O)N1CCC[C@H]1C(=O)N1CCC[C@H]1C(=O)N1CCC[C@H]1C(=O)N[C@@H](CO)C(N)=O)[C@@H](C)CC)C(=O)O
B4: exendin-4 peptide analogue SEQ ID NO: 30 (peptide)
peptide: Y[Aib]EGTFTSDLSKQK([γGlu-Palmitoyl])DKRAAQDFIEWLKNGGPSSGAPPPS-NH2
modifications: N-terminus assumed
SMILES: CCCCCCCCCCCCCCCC(=O)N[C@@H](CCC(=O)NCCCC[C@H](NC(=O)[C@H](CCC(N)=O)NC(=O)[C@H](CCCCN)NC(=O)[C@H](CO)NC(=O)[C@H](CC(C)C)NC(=O)[C@H](CC(=O)O)NC(=O)[C@H](CO)NC(=O)[C@@H](NC(=O)[C@H](Cc1ccccc1)NC(=O)[C@@H](NC(=O)CNC(=O)[C@H](CCC(=O)O)NC(=O)C(C)(C)NC(=O)[C@@H](N)Cc1ccc(O)cc1)[C@@H](C)O)[C@@H](C)O)C(=O)N[C@@H](CC(=O)O)C(=O)N[C@@H](CCCCN)C(=O)N[C@@H](CCCNC(=N)N)C(=O)N[C@@H](C)C(=O)N[C@@H](C)C(=O)N[C@@H](CCC(N)=O)C(=O)N[C@@H](CC(=O)O)C(=O)N[C@@H](Cc1ccccc1)C(=O)N[C@H](C(=O)N[C@@H](CCC(=O)O)C(=O)N[C@@H](Cc1c[nH]c2ccccc12)C(=O)N[C@@H](CC(C)C)C(=O)N[C@@H](CCCCN)C(=O)N[C@@H](CC(N)=O)C(=O)NCC(=O)NCC(=O)N1CCC[C@H]1C(=O)N[C@@H](CO)C(=O)N[C@@H](CO)C(=O)NCC(=O)N[C@@H](C)C(=O)N1CCC[C@H]1C(=O)N1CCC[C@H]1C(=O)N1CCC[C@H]1C(=O)N[C@@H](CO)C(N)=O)[C@@H](C)CC)C(=O)O
B5: exendin-4 peptide analogue SEQ ID NO: 35 (peptide)
peptide: Y[Aib]QGTFTSDLSIQK([γGlu-Palmitoyl])DERAAKDFIEWLKAGGPSSGAPPPS-NH2
modifications: N-terminus assumed
SMILES: CCCCCCCCCCCCCCCC(=O)N[C@@H](CCC(=O)NCCCC[C@H](NC(=O)[C@H](CCC(N)=O)NC(=O)[C@@H](NC(=O)[C@H](CO)NC(=O)[C@H](CC(C)C)NC(=O)[C@H](CC(=O)O)NC(=O)[C@H](CO)NC(=O)[C@@H](NC(=O)[C@H](Cc1ccccc1)NC(=O)[C@@H](NC(=O)CNC(=O)[C@H](CCC(N)=O)NC(=O)C(C)(C)NC(=O)[C@@H](N)Cc1ccc(O)cc1)[C@@H](C)O)[C@@H](C)O)[C@@H](C)CC)C(=O)N[C@@H](CC(=O)O)C(=O)N[C@@H](CCC(=O)O)C(=O)N[C@@H](CCCNC(=N)N)C(=O)N[C@@H](C)C(=O)N[C@@H](C)C(=O)N[C@@H](CCCCN)C(=O)N[C@@H](CC(=O)O)C(=O)N[C@@H](Cc1ccccc1)C(=O)N[C@H](C(=O)N[C@@H](CCC(=O)O)C(=O)N[C@@H](Cc1c[nH]c2ccccc12)C(=O)N[C@@H](CC(C)C)C(=O)N[C@@H](CCCCN)C(=O)N[C@@H](C)C(=O)NCC(=O)NCC(=O)N1CCC[C@H]1C(=O)N[C@@H](CO)C(=O)N[C@@H](CO)C(=O)NCC(=O)N[C@@H](C)C(=O)N1CCC[C@H]1C(=O)N1CCC[C@H]1C(=O)N1CCC[C@H]1C(=O)N[C@@H](CO)C(N)=O)[C@@H](C)CC)C(=O)O
B6: exendin-4 peptide analogue SEQ ID NO: 34 (peptide)
peptide: Y[Aib]QGTFTSDLSIQK([γGlu-Palmitoyl])DSRAAQDFIEWLKRGGPSSGAPPPS-NH2
modifications: N-terminus assumed
SMILES: CCCCCCCCCCCCCCCC(=O)N[C@@H](CCC(=O)NCCCC[C@H](NC(=O)[C@H](CCC(N)=O)NC(=O)[C@@H](NC(=O)[C@H](CO)NC(=O)[C@H](CC(C)C)NC(=O)[C@H](CC(=O)O)NC(=O)[C@H](CO)NC(=O)[C@@H](NC(=O)[C@H](Cc1ccccc1)NC(=O)[C@@H](NC(=O)CNC(=O)[C@H](CCC(N)=O)NC(=O)C(C)(C)NC(=O)[C@@H](N)Cc1ccc(O)cc1)[C@@H](C)O)[C@@H](C)O)[C@@H](C)CC)C(=O)N[C@@H](CC(=O)O)C(=O)N[C@@H](CO)C(=O)N[C@@H](CCCNC(=N)N)C(=O)N[C@@H](C)C(=O)N[C@@H](C)C(=O)N[C@@H](CCC(N)=O)C(=O)N[C@@H](CC(=O)O)C(=O)N[C@@H](Cc1ccccc1)C(=O)N[C@H](C(=O)N[C@@H](CCC(=O)O)C(=O)N[C@@H](Cc1c[nH]c2ccccc12)C(=O)N[C@@H](CC(C)C)C(=O)N[C@@H](CCCCN)C(=O)N[C@@H](CCCNC(=N)N)C(=O)NCC(=O)NCC(=O)N1CCC[C@H]1C(=O)N[C@@H](CO)C(=O)N[C@@H](CO)C(=O)NCC(=O)N[C@@H](C)C(=O)N1CCC[C@H]1C(=O)N1CCC[C@H]1C(=O)N1CCC[C@H]1C(=O)N[C@@H](CO)C(N)=O)[C@@H](C)CC)C(=O)O

The binders below were run against T1, human GIP receptor (assay: cell-based or functional assay).
For B1, the “EC50 hGIP R” value was 0.0335 nM.
In the case of B2, the “EC50 hGIP R” value is reported as 0.0301 nM.
B3 was tested, and the “EC50 hGIP R” value was 0.0131 nM.
With B4 the “EC50 hGIP R” value was 0.0163 nM.
B5 was tested, and the “EC50 hGIP R” value was 0.0182 nM.
With B6 the “EC50 hGIP R” value was 0.0513 nM.

What follows are binders tested against human glucagon receptor (human, UniProt P47871 26-477) (assay: cell-based or functional assay).
Chain of human glucagon receptor (P47871 26-477): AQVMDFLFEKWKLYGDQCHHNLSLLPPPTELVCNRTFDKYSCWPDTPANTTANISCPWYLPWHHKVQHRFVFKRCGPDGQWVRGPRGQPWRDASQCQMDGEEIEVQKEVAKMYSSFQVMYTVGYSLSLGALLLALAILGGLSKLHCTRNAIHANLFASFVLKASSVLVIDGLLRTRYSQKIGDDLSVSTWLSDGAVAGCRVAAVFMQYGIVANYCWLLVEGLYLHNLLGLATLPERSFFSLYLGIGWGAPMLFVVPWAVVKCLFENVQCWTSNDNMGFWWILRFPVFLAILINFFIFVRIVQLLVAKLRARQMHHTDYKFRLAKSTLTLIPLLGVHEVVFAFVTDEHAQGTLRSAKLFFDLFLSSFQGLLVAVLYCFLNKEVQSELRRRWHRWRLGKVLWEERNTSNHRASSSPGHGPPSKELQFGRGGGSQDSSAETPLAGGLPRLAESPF
B1 was tested, and the “EC50 hGLUC R” value was 0.0192 nM.
With B2 the “EC50 hGLUC R” value was 0.0395 nM.
In the case of B3, the “EC50 hGLUC R” value is reported as 0.0041 nM.
B4 was tested, and the “EC50 hGLUC R” value was 1.45 nM.
With B5 the “EC50 hGLUC R” value was 0.123 nM.
For B6, the “EC50 hGLUC R” value was 0.222 nM.

These binders were tested against human GLP-1 receptor (human, UniProt P43220 24-463) (assay: cell-based or functional assay).
For B1, the “EC50 hGLP-1 R” value was 0.0417 nM.
B2 was tested, and the “EC50 hGLP-1 R” value was 0.0052 nM.
With B3 the “EC50 hGLP-1 R” value was 0.0148 nM.
With B4 the “EC50 hGLP-1 R” value was 0.005 nM.
B5 was tested, and the “EC50 hGLP-1 R” value was 0.0035 nM.
With B6 the “EC50 hGLP-1 R” value was 0.0074 nM.

From patent publication US20140213513A1 (Sanofi, priority 2012, published 2014)
